Measured values: US20240034813A1 (Janssen / Centocor, published 2024)

Legend:
[1] = biological target: T1, recombinant human EGFR/ErbB1/HER1 with C-terminal His tag, Cy5-labeled (human, UniProt P00533 25-645, Cy5 label (reacted with Cy5 Mono NHS Ester; sites not stated)); test: competitive TR-FRET (Eu-amivantamab/Cy5-EGFR), EC50 ratio vs Reference Material; Ex. 2 Formulation 2 (50 mM histidine), 3 months at 25 C
T1 construct: Commercial protein; also called Cy5-EGFR; Cy5-labeled EGFR antigen; not shown: C-terminal His tag
Source text: (§1) In this procedure, varying concentrations of unlabeled bispecific EGFR-cMet antibody sample compete with donor fluorophore (Europium (Eu) chelate) labeled bispecific EGFR-cMet antibody for binding to an acceptor fluorophore (Cy5)-labeled EGFR antigen. Excitation of the donor fluorophore results in a transfer of energy to the bound acceptor fluorophore (FRET process). The resultant FRET is detected by emission of light at 665 nm using a microplate reader capable of measuring time-resolved fluorescence. Sample dose response curves are compared to the RM.
(§2) EGFR Binding Materials and Methods. Certified commercial EGFR, a recombinant human EGFR/ErbB1/HER1 with C-terminal His tag is reacted with certified commercial Cy5 Mono NHS Ester to produce Cy5-labeled EGFR. Validated bispecific EGFR-cMet antibody is reacted with certified commercial Europium (Eu) chelate to produce Eu-labeled bispecific EGFR-cMet antibody. […] Fluorescence is then measured by spectrophotometry at 665 nm, plotted against antibody concentration and analyzed by a four-parameter logistic model. The antibody concentration required to obtain half of the maximum fluorescence response (EC50) is determined for RM, assay control and samples. The potencies of assay control and samples are calculated based on the ratio of the sample (or control) and RM EC50 values and reported as a percentage activity relative to the RM.

[2] = biological target: T1, recombinant human EGFR/ErbB1/HER1 with …; test: competitive TR-FRET (Eu-amivantamab/Cy5-EGFR), EC50 ratio vs Reference Material; Ex. 2 Formulation 3 (acetate), T0, 5 C table
Source text: as §1, §2

[3] = biological target: T2, recombinant cMet/HGFR with c-terminal His-tag, Cy5-labeled (UniProt P08581 25-932, limits assumed, Cy5 label (reacted with Cy5 Mono NHS Ester; sites not stated)); test: competitive TR-FRET (Eu-amivantamab/Cy5-c-MET), EC50 ratio vs Reference Material; Ex. 3 acetate formulation, 6 months at 25 C then shaking up to 72 h
T2 construct: Commercial protein; also called Cy5-c-MET; Cy5-labeled c-MET antigen; not shown: C-terminal His-tag
Source text: (§3) In this procedure, varying concentrations of unlabeled bispecific EGFR-cMet antibody sample compete with donor fluorophore (Europium (Eu) chelate) labeled bispecific EGFR-cMet antibody for binding to an acceptor fluorophore (Cy5)-labeled c-MET antigen. Excitation of the donor fluorophore results in a transfer of energy to the bound acceptor fluorophore (FRET process). The resultant FRET is detected by emission of light at 665 nm using a microplate reader capable of measuring time-resolved fluorescence. Sample dose response curves are compared to the Reference Material (RM).
as §2, with “c-MET Binding” for “EGFR Binding”, “commercial cMet,” for “commercial EGFR,”, “recombinant cMet/HGFR” for “recombinant human EGFR/ErbB1/HER1”, “with c-terminal His-tag” for “with C-terminal His tag”, “Cy5-labeled c-MET.” for “Cy5-labeled EGFR.”, “produce Eu labeled” for “produce Eu-labeled”

[4] = biological target: T1, recombinant human EGFR/ErbB1/HER1 with …; test: competitive TR-FRET (Eu-amivantamab/Cy5-EGFR), EC50 ratio vs Reference Material; Ex. 2 Formulation 3 (acetate), 3 months at 5 C
Source text: as §1, §2

[5] = biological target: T2, recombinant cMet/HGFR with c-terminal …; test: competitive TR-FRET (Eu-amivantamab/Cy5-c-MET), EC50 ratio vs Reference Material; Ex. 11 drug product, 6 months at 25 C
Source text: as §3
as §2, with “c-MET Binding” for “EGFR Binding”, “commercial cMet,” for “commercial EGFR,”, “recombinant cMet/HGFR” for “recombinant human EGFR/ErbB1/HER1”, “with c-terminal His-tag” for “with C-terminal His tag”, “Cy5-labeled c-MET.” for “Cy5-labeled EGFR.”, “produce Eu labeled” for “produce Eu-labeled”

[6] = biological target: T2, recombinant cMet/HGFR with c-terminal …; test: competitive TR-FRET (Eu-amivantamab/Cy5-c-MET), EC50 ratio vs Reference Material; Ex. 11 drug product, 3 months at 5 C
Source text: as §3
as §2, with “c-MET Binding” for “EGFR Binding”, “commercial cMet,” for “commercial EGFR,”, “recombinant cMet/HGFR” for “recombinant human EGFR/ErbB1/HER1”, “with c-terminal His-tag” for “with C-terminal His tag”, “Cy5-labeled c-MET.” for “Cy5-labeled EGFR.”, “produce Eu labeled” for “produce Eu-labeled”

[7] = biological target: T2, recombinant cMet/HGFR with c-terminal …; test: competitive TR-FRET (Eu-amivantamab/Cy5-c-MET), EC50 ratio vs Reference Material; Ex. 2 Formulation 1 (10 mM histidine), T0, 25 C table
Source text: as §3
as §2, with “c-MET Binding” for “EGFR Binding”, “commercial cMet,” for “commercial EGFR,”, “recombinant cMet/HGFR” for “recombinant human EGFR/ErbB1/HER1”, “with c-terminal His-tag” for “with C-terminal His tag”, “Cy5-labeled c-MET.” for “Cy5-labeled EGFR.”, “produce Eu labeled” for “produce Eu-labeled”

[8] = biological target: T1, recombinant human EGFR/ErbB1/HER1 with …; test: competitive TR-FRET (Eu-amivantamab/Cy5-EGFR), EC50 ratio vs Reference Material; Ex. 2 Formulation 2 (50 mM histidine), 3 months at 40 C
Source text: as §1, §2

B1: amivantamab (bispecific antibody, human IgG1, kappa)
heavy 1: not shown
light 1: not shown
heavy 2: not shown
light 2: DIQMTQSPSSVSASVGDRVTITCRASQGISNWLAWFQHKPGKAPKLLIYAASSLLSGVPSRFSGSGSGTDFTLTISSLQPEDFATYYCQQANSFPITFGQGTRLEIKRTVAAPSVFIFPPSDEQLKSGTASVVCLLNNFYPREAKVQWKVDNALQSGNSQESVTEQDSKDSTYSLSSTLTLSKADYEKHKVYACEVTHQGLSSPVTKSFNRGEC
notes: The samples tested were high concentration (160 mg/mL) formulations, fresh or stored or stressed; also called JNJ-61186372; bispecific EGFR-cMet antibody
- EGFR Binding % activity relative to RM [1]: 77%
- EGFR Binding % activity relative to RM [2]: 103%
- cMET Binding % activity relative to RM [3]: 97%
- EGFR Binding % activity relative to RM [4]: 87%
- cMET Binding activity relative to Reference Material (%) [5]: 113%
- cMET Binding activity relative to Reference Material (%) [6]: 97%
- cMET Binding % activity relative to RM [7]: 87%
- EGFR Binding % activity relative to RM [8]: 38%
